Test results taken from patent publication US20250361274A1, “PEPTIDE AND PEPTIDE-CONTAINING AGENT” (PEPTIDREAM INC., priority 2022, published 2025).
Square brackets hold non-standard residues; d marks the D form. Ends that are not written are not given here. Ala(2-NH2-4-pyridyl) = Nc1cc(C[C@H](N)C(=O)O)ccn1; 3Pal(6-Ph) = N[C@@H](Cc1ccc(-c2ccccc2)nc1)C(=O)O; Phe(4-COOH) = N[C@@H](Cc1ccc(C(=O)O)cc1)C(=O)O; Bip = N[C@@H](Cc1ccc(-c2ccccc2)cc1)C(=O)O; Phe(3-Cl) = N[C@@H](Cc1cccc(Cl)c1)C(=O)O; Phe(4-Cl) = N[C@@H](Cc1ccc(Cl)cc1)C(=O)O; Phe(3-Me) = Cc1cccc(C[C@H](N)C(=O)O)c1; Phe(4-F) = N[C@@H](Cc1ccc(F)cc1)C(=O)O; Phe(4-Me) = Cc1ccc(C[C@H](N)C(=O)O)cc1; NMeF = CN[C@@H](Cc1ccccc1)C(=O)O; 3Pal = N[C@@H](Cc1cccnc1)C(=O)O; 4Pal = N[C@@H](Cc1ccncc1)C(=O)O; Aad = N[C@@H](CCCC(=O)O)C(=O)O; Cha = N[C@@H](CC1CCCCC1)C(=O)O; Abu = CC[C@H](N)C(=O)O

How the values were obtained:
[1] = biological target: T1, BMP7 (Homo sapiens, UniProt P18075); assay: BMP7 signal transduction inhibitory activity: SMAD1 phosphorylation by BMP7 stimulus, A549 cells; type: cell-based
T1 sequence (P18075 293-431): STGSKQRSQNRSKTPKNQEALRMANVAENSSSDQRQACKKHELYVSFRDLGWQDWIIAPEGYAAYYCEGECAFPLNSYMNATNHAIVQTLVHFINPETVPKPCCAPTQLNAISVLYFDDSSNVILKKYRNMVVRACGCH
Method in brief: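 Inhibition was measured as loss of BMP7-induced SMAD1 phosphorylation, using 10 nM BMP7 on A549 cells. Most peptides were given as three-concentration sets, such as 1/10/100, 10/100/1,000, 100/300/1,000 or 10/30/90 nM. Others were given as eight 1/3-ratio dilutions from 100 or 1,000 nM, alongside Noggin as control.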

[2] = biological target: T2, BMP4 (Homo sapiens, UniProt P12644); assay: BMP4 signal transduction inhibitory activity: SMAD1 phosphorylation by BMP4 stimulus, AlphaLISA SureFire, A549 cells; type: cell-based
T2 sequence (P12644 293-408): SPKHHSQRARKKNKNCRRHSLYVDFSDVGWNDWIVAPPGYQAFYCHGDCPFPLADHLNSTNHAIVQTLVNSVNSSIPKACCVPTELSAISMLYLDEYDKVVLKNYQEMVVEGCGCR

[3] = SMAD1 phosphorylation, BMP7 10 nM, peptide conc. in assay 1, 10, 100 nM
[4] = SMAD1 phosphorylation, BMP4 0.2 nM, peptide conc. in assay 0.2, 2, 20 nM
[5] = BMP7 10 nM stimulus, peptide conc. in assay 10, 30, 90 nM
[6] = BMP4 0.2 nM stimulus, peptide conc. in assay 2, 20, 200 nM

Substance	aLISA BMP7 (10 nM) % inh [1, 3]	aLISA BMP4 (0.2 nM) % inh [2, 4]	aLISA BMP7 (10 nM) % inh [1, 5]	aLISA BMP4 (0.2 nM) % inh [2, 6]	further results
358 (FG[NMeF]G[Bip]GDE[Cha]A[NMeF]LHCG-NH2; not fully specified (N-terminus, bridges)) [compound 358]	D (showed less than 30% of inhibitory activity in 10 nM-addition zone and showed 30% or more of inhibitory activity in 100 nM-addition zone)	ND (the inhibitory activity was less than 30% at the maximum concentration evaluated)			
359 (FG[NMeF]G[Bip]GDE[Cha]A[NMeF]L[Abu]CG-NH2; not fully specified (N-terminus, bridges)) [compound 359]	D (showed less than 30% of inhibitory activity in 10 nM-addition zone and showed 30% or more of inhibitory activity in 100 nM-addition zone)	ND (the inhibitory activity was less than 30% at the maximum concentration evaluated)			
360 (FG[NMeF]G[Bip]GDE[Cha]A[NMeF]L[Ala(2-NH2-4-pyridyl)]CG-NH2; not fully specified (N-terminus, bridges)) [compound 360]	D (showed less than 30% of inhibitory activity in 10 nM-addition zone and showed 30% or more of inhibitory activity in 100 nM-addition zone)	ND (the inhibitory activity was less than 30% at the maximum concentration evaluated)			
361 (FG[NMeF]G[Bip]GDE[Cha]A[NMeF]L[Phe(4-COOH)]CG-NH2; not fully specified (N-terminus, bridges)) [compound 361]	D (showed less than 30% of inhibitory activity in 10 nM-addition zone and showed 30% or more of inhibitory activity in 100 nM-addition zone)	ND (the inhibitory activity was less than 30% at the maximum concentration evaluated)			
362 (FG[NMeF]GFGDE[Cha]A[NMeF]LHCG-NH2; not fully specified (N-terminus, bridges)) [compound 362]	D (showed less than 30% of inhibitory activity in 10 nM-addition zone and showed 30% or more of inhibitory activity in 100 nM-addition zone)	ND (the inhibitory activity was less than 30% at the maximum concentration evaluated)			
363 (FG[NMeF]G[3Pal(6-Ph)]GDE[Cha]A[NMeF]LHCG-NH2; not fully specified (N-terminus, bridges)) [compound 363]	D (showed less than 30% of inhibitory activity in 10 nM-addition zone and showed 30% or more of inhibitory activity in 100 nM-addition zone)	ND (the inhibitory activity was less than 30% at the maximum concentration evaluated)			
364 (FG[NMeF]G[Bip]GDE[Cha]Q[NMeF]LHCG-NH2; not fully specified (N-terminus, bridges)) [compound 364]	D (showed less than 30% of inhibitory activity in 10 nM-addition zone and showed 30% or more of inhibitory activity in 100 nM-addition zone)	ND (the inhibitory activity was less than 30% at the maximum concentration evaluated)			
365 (FG[NMeF]G[Bip]GDE[Cha][Abu][NMeF]LHCG-NH2; not fully specified (N-terminus, bridges)) [compound 365]	D (showed less than 30% of inhibitory activity in 10 nM-addition zone and showed 30% or more of inhibitory activity in 100 nM-addition zone)	ND (the inhibitory activity was less than 30% at the maximum concentration evaluated)			
366 (FG[NMeF]G[Bip]GDE[Cha][Aad][NMeF]LHCG-NH2; not fully specified (N-terminus, bridges)) [compound 366]	D (showed less than 30% of inhibitory activity in 10 nM-addition zone and showed 30% or more of inhibitory activity in 100 nM-addition zone)	ND (the inhibitory activity was less than 30% at the maximum concentration evaluated)			
367 (FG[NMeF]GFGDE[Cha]Q[NMeF]LHCG-NH2; not fully specified (N-terminus, bridges)) [compound 367]	D (showed less than 30% of inhibitory activity in 10 nM-addition zone and showed 30% or more of inhibitory activity in 100 nM-addition zone)	ND (the inhibitory activity was less than 30% at the maximum concentration evaluated)			
368 (FG[NMeF]G[Bip]GDE[Cha]Q[NMeF]L[Phe(4-COOH)]CG-NH2; not fully specified (N-terminus, bridges)) [compound 368]	C (showed less than 30% of inhibitory activity in a zone to which the peptide was added in an amount of 1 nM and showed 30% or more of inhibitory activity in 10 nM-addition zone)	ND (the inhibitory activity was less than 30% at the maximum concentration evaluated)			
369 (FG[NMeF]GFGDE[Cha]Q[NMeF]L[Phe(4-COOH)]CG-NH2; not fully specified (N-terminus, bridges)) [compound 369]	D (showed less than 30% of inhibitory activity in 10 nM-addition zone and showed 30% or more of inhibitory activity in 100 nM-addition zone)	ND (the inhibitory activity was less than 30% at the maximum concentration evaluated)			
370 (FG[NMeF]G[3Pal(6-Ph)]GDE[Cha]Q[NMeF]L[Phe(4-COOH)]CG-NH2; not fully specified (N-terminus, bridges)) [compound 370]	D (showed less than 30% of inhibitory activity in 10 nM-addition zone and showed 30% or more of inhibitory activity in 100 nM-addition zone)	ND (the inhibitory activity was less than 30% at the maximum concentration evaluated)			
371 (FGFGFGDDAAFLHCG; not fully specified; MOD_RES 3 F represents Methyl-L-phenylalanine(MeF); MOD_RES 5 F represents (S)-3-(1,1'-Biphenyl-4-yl)-2-aminopropanoic acid(Bph); MOD_RES 9 A represents (S)-2-Amino-3-cyclohexylpropanoic acid(Cha); MOD_RES 11 F represents Methyl-L-phenylalanine(MeF)) [compound 371]					aLISA BMP7 (10 nM) % inh ([1]; SMAD1 phosphorylation, BMP7 10 nM, peptide conc. in assay 10, 30, 90 nM): E (showed 30% or more of inhibitory activity in 10 nM-addition zone); aLISA BMP4 (0.2 nM) % inh ([2]; SMAD1 phosphorylation, BMP4 0.2 nM, peptide conc. in assay 2, 20, 200 nM): A (showed less than 30% of inhibitory activity in 2 nM-peptide-addition zone and showed 30% or more of inhibitory activity in 20 nM-addition zone)
372 ([Phe(3-Cl)]G[NMeF]G[Bip]GDD[Cha]A[NMeF]LHCG-NH2; not fully specified (N-terminus, bridges); also: cyclic peptide, linkage not given here) [compound 372]			G (showed less than 30% of inhibitory activity in 30 nM-addition zone and showed 30% or more of inhibitory activity in 90 nM-addition zone)	ND (the inhibitory activity was less than 30% at the maximum concentration evaluated)	
373 ([Phe(4-Cl)]G[NMeF]G[Bip]GDD[Cha]A[NMeF]LHCG-NH2; not fully specified) [compound 373]			F (showed less than 30% of inhibitory activity in 10 nM-addition zone and showed 30% or more of inhibitory activity in 30 nM-addition zone)	A (showed less than 30% of inhibitory activity in 2 nM-peptide-addition zone and showed 30% or more of inhibitory activity in 20 nM-addition zone)	
374 ([Phe(3-Me)]G[NMeF]G[Bip]GDD[Cha]A[NMeF]LHCG-NH2; not fully specified) [compound 374]			G (showed less than 30% of inhibitory activity in 30 nM-addition zone and showed 30% or more of inhibitory activity in 90 nM-addition zone)	ND (the inhibitory activity was less than 30% at the maximum concentration evaluated)	
375 ([Phe(4-Me)]G[NMeF]G[Bip]GDD[Cha]A[NMeF]LHCG-NH2; not fully specified) [compound 375]			F (showed less than 30% of inhibitory activity in 10 nM-addition zone and showed 30% or more of inhibitory activity in 30 nM-addition zone)	B (showed less than 30% of inhibitory activity in 20 nM-addition zone and showed 30% or more of inhibitory activity in 200 nM-addition zone)	
376 (FG[NMeF]G[3Pal]GDD[Cha]A[NMeF]LHCG-NH2; not fully specified) [compound 376]			G (showed less than 30% of inhibitory activity in 30 nM-addition zone and showed 30% or more of inhibitory activity in 90 nM-addition zone)	ND (the inhibitory activity was less than 30% at the maximum concentration evaluated)	
377 (FG[NMeF]G[4Pal]GDD[Cha]A[NMeF]LHCG-NH2; not fully specified) [compound 377]			F (showed less than 30% of inhibitory activity in 10 nM-addition zone and showed 30% or more of inhibitory activity in 30 nM-addition zone)	ND (the inhibitory activity was less than 30% at the maximum concentration evaluated)	
378 (FG[NMeF]G[Phe(4-F)]GDD[Cha]A[NMeF]LHCG-NH2; not fully specified) [compound 378]			F (showed less than 30% of inhibitory activity in 10 nM-addition zone and showed 30% or more of inhibitory activity in 30 nM-addition zone)	ND (the inhibitory activity was less than 30% at the maximum concentration evaluated)	
